The text below walks through data of paper PMC5992459, “Novel DNA Aptamers that Bind to Mutant Huntingtin and Modify Its Activity”.

Data set [1] addresses endogenous huntingtin from HD60i4 NPC (CAG60/18) (Homo sapiens) (UniProt P42858). Nature of the data set: streptavidin pull-down. To be noted: NPC lysate; ELISA: 10 mM Tris-HCl pH 8.0, 0.15 M NaCl (TBS), 2 mg/mL BSA block, 1 pmol huntingtin/well, 50 pmol biotin-aptamer, 2 h (RT for coating/blocking); caspase-6 ….
Data set [2] has as its target Q78-huntingtin caspase-6 C-terminal fragment (270 kDa) (Homo sapiens, UniProt P42858 585-3142). The data set is described as follows: caspase-6 digestion of complex, anti-biotin immunoblot; ELISA: 10 mM Tris-HCl pH 8.0, 0.15 M NaCl (TBS), 2 mg/mL BSA block, 1 pmol huntingtin/well, 50 pmol biotin-aptamer, 2 h (RT for coating/blocking); caspase-6 mapping: aptamer:huntingtin 10:1, 2 h RT, spin column; SLM: 5:1, 2 h RT. To be noted: protein: recombinant; label: 5'-biotin; intramolecular G4. (In general: A western blot detects proteins with antibodies after separation by electrophoresis.)

Chain of Q78-huntingtin caspase-6 C-terminal fragment (270 kDa) (P42858 585-3142): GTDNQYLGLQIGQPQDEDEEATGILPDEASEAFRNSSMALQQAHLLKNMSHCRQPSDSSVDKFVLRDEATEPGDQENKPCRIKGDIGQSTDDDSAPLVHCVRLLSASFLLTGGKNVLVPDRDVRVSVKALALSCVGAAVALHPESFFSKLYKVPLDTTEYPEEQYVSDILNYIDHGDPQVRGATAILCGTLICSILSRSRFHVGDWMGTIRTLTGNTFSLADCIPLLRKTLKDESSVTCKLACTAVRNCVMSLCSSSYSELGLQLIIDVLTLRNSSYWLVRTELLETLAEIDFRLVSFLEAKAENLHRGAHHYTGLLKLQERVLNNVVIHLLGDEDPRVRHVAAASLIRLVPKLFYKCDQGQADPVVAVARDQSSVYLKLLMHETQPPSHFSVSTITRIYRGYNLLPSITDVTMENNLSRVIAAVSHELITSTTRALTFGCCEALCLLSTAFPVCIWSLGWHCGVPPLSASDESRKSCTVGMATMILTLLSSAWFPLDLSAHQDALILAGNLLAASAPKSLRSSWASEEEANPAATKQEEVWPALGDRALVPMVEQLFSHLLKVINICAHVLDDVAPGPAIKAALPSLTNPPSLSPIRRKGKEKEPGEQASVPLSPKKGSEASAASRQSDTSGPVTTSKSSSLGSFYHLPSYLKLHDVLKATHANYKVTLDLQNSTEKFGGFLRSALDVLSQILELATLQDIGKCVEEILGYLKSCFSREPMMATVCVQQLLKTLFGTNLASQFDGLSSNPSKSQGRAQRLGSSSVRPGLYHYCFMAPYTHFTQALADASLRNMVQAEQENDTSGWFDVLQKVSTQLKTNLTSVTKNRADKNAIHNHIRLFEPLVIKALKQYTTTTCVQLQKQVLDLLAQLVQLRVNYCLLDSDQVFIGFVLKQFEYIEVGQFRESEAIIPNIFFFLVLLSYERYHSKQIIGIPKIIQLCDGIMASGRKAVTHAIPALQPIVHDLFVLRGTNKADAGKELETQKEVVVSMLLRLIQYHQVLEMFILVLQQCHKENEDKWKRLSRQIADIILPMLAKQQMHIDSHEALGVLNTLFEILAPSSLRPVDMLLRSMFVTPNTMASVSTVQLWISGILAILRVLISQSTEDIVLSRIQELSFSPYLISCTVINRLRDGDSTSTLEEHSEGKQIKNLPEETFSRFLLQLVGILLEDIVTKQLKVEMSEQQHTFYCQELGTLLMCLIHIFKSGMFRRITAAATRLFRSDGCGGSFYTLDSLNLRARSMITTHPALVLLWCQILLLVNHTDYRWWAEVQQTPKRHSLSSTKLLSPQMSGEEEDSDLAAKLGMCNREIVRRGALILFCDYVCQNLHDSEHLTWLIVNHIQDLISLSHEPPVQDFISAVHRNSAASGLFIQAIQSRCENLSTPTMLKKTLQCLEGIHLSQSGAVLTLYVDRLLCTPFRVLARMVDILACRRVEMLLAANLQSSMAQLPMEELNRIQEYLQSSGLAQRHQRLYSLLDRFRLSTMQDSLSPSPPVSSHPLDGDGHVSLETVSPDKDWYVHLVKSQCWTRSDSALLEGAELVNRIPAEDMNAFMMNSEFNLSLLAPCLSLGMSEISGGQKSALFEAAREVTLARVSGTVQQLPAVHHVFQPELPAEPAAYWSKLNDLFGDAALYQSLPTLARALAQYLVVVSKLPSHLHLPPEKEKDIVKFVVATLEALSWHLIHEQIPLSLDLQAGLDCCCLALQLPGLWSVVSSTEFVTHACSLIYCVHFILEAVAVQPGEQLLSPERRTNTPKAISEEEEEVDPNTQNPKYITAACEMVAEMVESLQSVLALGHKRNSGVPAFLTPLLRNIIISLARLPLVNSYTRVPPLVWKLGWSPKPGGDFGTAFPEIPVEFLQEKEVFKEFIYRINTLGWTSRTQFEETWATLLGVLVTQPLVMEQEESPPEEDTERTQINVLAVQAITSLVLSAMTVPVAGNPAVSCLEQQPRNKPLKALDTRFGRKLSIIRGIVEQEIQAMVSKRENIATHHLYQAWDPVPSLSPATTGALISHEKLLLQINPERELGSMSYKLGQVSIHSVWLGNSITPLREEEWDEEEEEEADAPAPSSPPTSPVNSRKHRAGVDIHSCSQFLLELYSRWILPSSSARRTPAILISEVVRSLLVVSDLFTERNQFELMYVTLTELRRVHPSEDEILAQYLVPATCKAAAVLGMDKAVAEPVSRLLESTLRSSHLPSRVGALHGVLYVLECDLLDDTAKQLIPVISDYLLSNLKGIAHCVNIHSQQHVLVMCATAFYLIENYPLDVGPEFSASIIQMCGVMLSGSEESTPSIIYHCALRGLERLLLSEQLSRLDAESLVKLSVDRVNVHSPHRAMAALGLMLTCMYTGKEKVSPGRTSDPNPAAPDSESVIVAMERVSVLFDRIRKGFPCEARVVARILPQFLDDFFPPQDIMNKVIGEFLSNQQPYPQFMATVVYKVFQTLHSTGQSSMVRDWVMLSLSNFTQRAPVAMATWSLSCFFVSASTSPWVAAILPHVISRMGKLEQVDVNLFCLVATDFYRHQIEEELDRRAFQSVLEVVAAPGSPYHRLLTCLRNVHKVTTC

“GGGAGGGAGGGAGGGAGGGAGGGAGGGAGGGAGGGA [MS3]” gave a binding signal (fold vs HD17m8) in data set [1] of 3.6. Consider AGGGGTGGGGAGGGGTGGGGA (structured_DNA) [MS1], for which the binding result in data set [2] was “binds”.

In the case of GGGAGGGAGGGAGGGAGGGAGGGAGGGAGGGAGGGA (structured_DNA) [MS3], the binding result in data set [2] was “binds”. Regarding AGGGGTGGGGAGGGGAGGGGA (structured_DNA) [MS2], the binding result in data set [2] is recorded as “binds”. In the case of TGGGGAGGGGAGGGGCGGGGT (structured_DNA) [MS4], in data set [2], the binding result was “binds”.
